Measurements reported in US20240018528A1, “A TUNABLE PHOSPHORYLATION-BASED FEEDBACK CONTROLLER OF MAMMALIAN GENE EXPRESSION” (Massachusetts Institute of Technology, priority 2020, published 2024).

Test system: OmpR-VP64
Assay: Screen of EnvZ variants for kinase and phosphatase activity on OmpR-VP64-driven output
Format: cell-based
Conditions: FIG. 3B
From the text: The well-studied EnvZ-OmpR system was used to develop feedback controllers of the present disclosure, using separate kinase and phosphatase variants of EnvZ, and an OmpR-VP64 fusion protein as an activator for promoting transcription of a reporter protein. Kinase and phosphatase variants of the HK EnvZ through mutation and/or truncation (FIG. 3A). […] However, the phosphatase EnvZ activity was weak compared to the EnvZm2 kinase. To create a stronger phosphatase, a DHp domain of EnvZ was fused to a leucine zipper GCN4 domain, with GCN4 at the N-terminus and EnvZm2 at the C-terminus, to lock the DHp domain of an HK into fixed conformations (FIG. 3C). […]
The phosphatase regulator was further modified to allow tunability by use of a small molecule. […] Expression of both proteins from the same nucleic acid and translation from the same mRNA, such as by separating coding sequences by a 2A motif or open reading frames IRES cassette, ensures maximal coupling of transcription and translation of the two proteins. […]
For quantifying the effects of EnvZ variants and perturbations, fold-changes were calculated by dividing the median output level of each sample by that of the equivalent sample in the absence of the EnvZ variant or perturbation. […]

B1: EnvZm2: kinase+/phosphatase− mutant of EnvZ containing a T247A mutation (SEQ ID NO: 3) (protein)
chain: MRRLRFSPRSSFARTLLLIVTLLFASLVTTYLVVLNFAILPSLQQFNKVLAYEVRMLMTDKLQLEDGTQLVVPPAFRREIYRELGISLYSNEAAEEAGLRWAQHYEFLSHQMAQQLGGPTEVRVEVNKSSPVVWLKTWLSPNIWVRVPLTEIHQGDFSPLFRYTLAIMLLAIGGAWLFIRIQNRPLVDLEHAALQVGKGIIPPPLREYGASEVRSVTRAFNHMAAGVKQLADDRTLLMAGVSHDLRAPLTRIRLATEMMSEQDGYLAESINKDIEECNAIIEQFIDYLRTGQEMPMEMADLNAVLGEVIAAESGYEREIETALYPGSIEVKMHPLSIKRAVANMVVNAARYGNGWIKVSSGTEPNRAWFQVEDDGPGIAPEQRKHLFQPFVRGDSARTISGTGLGLAIVQRIVDNHNGMLELGTSERGGLSIRAWLPVPVTRAQGTTKEG
  kinase activity (phosphorylation of OmpR): particularly effective in phosphorylating OmpR
